Measured values from publication PMC7086394 (Bioconjugate Chemistry, 2020).
Where no end group is shown, it is not given here.

Target: T1, K3GW (acetylated N-terminus)
T1 peptide: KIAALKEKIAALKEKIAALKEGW
Experiment: ITC

Ac-EIAALEKEIAALEKEIAALEKGY [E3GY] was tested. Which Kd did it give?
Its Kd is 0.073 µM.

And the dH?
The dH was -77 kJ/mol.
